From PMC6089081 (Redox Biology, 2018) come the findings set out here.

Broadly, the stoichiometry N is a count of units in the complex or per binding partner.

This data set concerns the molecule itself. The experiment in a line: native gel or EMSA. In general terms: Mobility shift assays separate free from complexed probe on a gel.

B1: GRPEL2 (natural protein)
chain: STATQRTAGEDCRSEDPPDELGPPLAERALRVKAVKLEKEVQDLTVRYQRAIADCENIRRRTQRCVEDAKIFGIQSFCKDLVEVADILEKTTECISEESEPEDQKLTLEKVFRGLLLLEAKLKSVFAKHGLEKLTPIGDKYDPHEHELICHVPAGVGVQPGTVALVRQDGYKLHGRTIRLARVEVAVESQRRL
Regarding B1, the “stoichiometry N” value came out at 2.
